Values joined by “and” are separate entries in the source; they are usually repeats but may differ in a detail not shown here. Identical values can stand only once.
B1: G. gallus USP28 (143-706) (domain or fragment, chicken (Gallus gallus), UniProt Q5ZID5 143-706, looked up)
chain: SKQSDWKRVGDWPVGMKNIGNTCWFSAVIQSLFQLPQFRRLVLSYSFPPNVLESCRTRTGKRNIAFMQELQCLFALMLGTRRKFVDPSAALELLRDAFKSTEEQQQDVSEFTHKLLDWLEDAFQLAVNVRSPGDKSENPMVQLFYGTFLTEGVHEGNTFSKIETFGQYPLQVNGYRNLNECLEGAMVEGEMDEETATQSVKYVQERWFTKLPPVLTFELSRFEFNQSLGQPEKIHTKLEFPQTIFMDRYLYCSKELIQTKREEMKKLKEKMLVLQQKLERYMKYGSGPARFPLPDMLQYVLEFITTKPAGAVSSACVSSTEDSQMMDRQSQGESLILGTPSQPDSMLDGKDGKPEDEAVLLANSSPQQQLNAPLQPSEPPAEMSDCPAPHVVSEEEMNLVTTCLQRWRNEIEQDVRDLKESIARVSLSIDEMYSDPHLQQVPYHLHAVLVHEGQANAGHYWAFIYDQPRKSWLKYNDISVTESSWEELERDSFGGLRNASAYCLMYISDKVSHVVAGEGDGSEVGQFQKEVEALPPELRRYIQEDNWRLEQEAEEWEEEQSCKI
notes: USP28, chicken, residues 143-706; also called USP28 catalytic domain from chicken; source: E. coli Rosetta2(DE3)pLacI, purified (HisTrap, 3C protease, Resource Q, size exclusion)
B2: Flag-USP25 (2-1055) P521S F522E (enzyme, human, UniProt Q9UHP3 2-1055, looked up)
chain: TVEQNVLQQSAAQKHQQTFLNQLREITGINDTQILQQALKDSNGNLELAVAFLTAKNAKTPQQEETTYYQTALPGNDRYISVGSQADTNVIDLTGDDKDDLQRAIALSLAESNRAFRETGITDEEQAISRVLEASIAENKACLKRTPTEVWRDSRNPYDRKRQDKAPVGLKNVGNTCWFSAVIQSLFNLLEFRRLVLNYKPPSNAQDLPRNQKEHRNLPFMRELRYLFALLVGTKRKYVDPSRAVEILKDAFKSNDSQQQDVSEFTHKLLDWLEDAFQMKAEEETDEEKPKNPMVELFYGRFLAVGVLEGKKFENTEMFGQYPLQVNGFKDLHECLEAAMIEGEIESLHSENSGKSGQEHWFTELPPVLTFELSRFEFNQALGRPEKIHNKLEFPQVLYLDRYMHRNREITRIKREEIKRLKDYLTVLQQRLERYLSYGSGPKRFPLVDVLQYALEFASSKPVCTSPVDDIDASSPPSGSIPSQTLPSTTEQQGALSSELPSTSPSSVAAISSRSVIHKSETQSRIPPDLPMHPAPRHITEEELSVLESCLHRWRTEIENDTRDLQESISRIHRTIELMYSDKSMIQVPYRLHAVLVHEGQANAGHYWAYIFDHRESRWMKYNDIAVTKSSWEELVRDSFGGYRNASAYCLMYINDKAQFLIQEEFNKETGQPLVGIETLPPDLRDFVEEDNQRFEKELEEWDAQLAQKALQEKLLASQKLRESETSVTTAQAAGDPEYLEQPSRSDFSKHLKEETIQIITKASHEHEDKSPETVLQSAIKLEYARLVKLAQEDTPPETDYRLHHVVVYFIQNQAPKKIIEKTLLEQFGDRNLSFDERCHNIMKVAQAKLEMIKPEEVNLEEYEEWHQDYRKFRETTMYLIIGLENFQRESYIDSLLFLICAYQNNKELLSKGLYRGHDEELISHYRRECLLKLNEQAAELFESGEDREVNNGLIIMNEFIVPFLPLLLVDEMEEKDILAVEDMRNRWCSYLGQEMEPHLQEKLTDFLPKLLDCSMEIKSFHEPPKLPSYSTHELCERFARIMLSLSRTPADGR
notes: also called USP25 mutated in the AIM (P521S F522E); source: HEK293, transfected (pOPINE), in lysate; not shown: Flag, N-terminal, kept
B3: M. musculus USP25 (157-715) (domain or fragment, mouse (Mus musculus), UniProt P57080 157-715, looked up)
chain: NPYDRKRQEKAPVGLKNVGNTCWFSAVIQSLFNLLEFRRLVLNYKPPSNAQDLPRNQKEHRNLPFMRELRYLFALLVGTKRKYVDPSRAVEILKDAFKSNDSQQQDVSEFTHKLLDWLEDAFQMKAEEETDEEKPKNPMVELFYGRFLAMGVLEGKKFENTEMFGQYPLQVNGFKDLHECLEAAMIEGEIESLHSDNSGKSGQEHWFTELPPVLTFELSRFEFNQALGRPEKIHNKLEFPQVLYLDRYMHRNREITRIKREEIKRLKDYLTVLQQRLERYLSYGSGPKRFPLVDVLQYALEFASSKPVCTSPVDDIDASSSASGPLPSQSLPSTTEQQGPCASDLPGSSSPASGAALPLRSVIHKPFTQSRIPPDLPMHPAPRHITEEELCVLESCLHRWRTEIENDTRDLQESISRIHRTIELMYSDKSMIQVPYRLHAVLVHEGQANAGHYWAYIFDHRESRWMKYNDIAVTKSSWEELVRDSFGGYRNASAYCLMYIDDKAQFLIQEEFNKETGQALVGMETLPPDLRDFVEEDNQRFEKELEEWDTQLAQRSLQE
notes: also called USP25 catalytic domain from mouse; source: E. coli Rosetta2(DE3)pLacI, purified (HisTrap, 3C protease, Resource Q, size exclusion)
B4: HA-USP28 (2-1077) (enzyme, human, UniProt Q96RU2 2-1077, looked up)
chain: TAELQQDDAAGAADGHGSSCQMLLNQLREITGIQDPSFLHEALKASNGDITQAVSLLTDERVKEPSQDTVATEPSEVEGSAANKEVLAKVIDLTHDNKDDLQAAIALSLLESPKIQADGRDLNRMHEATSAETKRSKRKRCEVWGENPNPNDWRRVDGWPVGLKNVGNTCWFSAVIQSLFQLPEFRRLVLSYSLPQNVLENCRSHTEKRNIMFMQELQYLFALMMGSNRKFVDPSAALDLLKGAFRSSEEQQQDVSEFTHKLLDWLEDAFQLAVNVNSPRNKSENPMVQLFYGTFLTEGVREGKPFCNNETFGQYPLQVNGYRNLDECLEGAMVEGDVELLPSDHSVKYGQERWFTKLPPVLTFELSRFEFNQSLGQPEKIHNKLEFPQIIYMDRYMYRSKELIRNKRECIRKLKEEIKILQQKLERYVKYGSGPARFPLPDMLKYVIEFASTKPASESCPPESDTHMTLPLSSVHCSVSDQTSKESTSTESSSQDVESTFSSPEDSLPKSKPLTSSRSSMEMPSQPAPRTVTDEEINFVKTCLQRWRSEIEQDIQDLKTCIASTTQTIEQMYCDPLLRQVPYRLHAVLVHEGQANAGHYWAYIYNQPRQSWLKYNDISVTESSWEEVERDSYGGLRNVSAYCLMYINDKLPYFNAEAAPTESDQMSEVEALSVELKHYIQEDNWRFEQEVEEWEEEQSCKIPQMESSTNSSSQDYSTSQEPSVASSHGVRCLSSEHAVIVKEQTAQAIANTARAYEKSGVEAALSEVMLSPAMQGVILAIAKARQTFDRDGSEAGLIKAFHEEYSRLYQLAKETPTSHSDPRLQHVLVYFFQNEAPKRVVERTLLEQFADKNLSYDERSISIMKVAQAKLKEIGPDDMNMEEYKKWHEDYSLFRKVSVYLLTGLELYQKGKYQEALSYLVYAYQSNAALLMKGPRRGVKESVIALYRRKCLLELNAKAASLFETNDDHSVTEGINVMNELIIPCIHLIINNDISKDDLDAIEVMRNHWCSYLGQDIAENLQLCLGEFLPRLLDPSAEIIVLKEPPTIRPNSPYDLCSRFAAVMESIQGVSTVTVK
notes: USP28, human, residues 2-1077; also called hemagglutinin (HA)-tagged USP28, wild type; source: HEK293, transfected (pOPINE), in lysate; not shown: HA, N-terminal, kept
B5: Human USP25 (157-720) (domain or fragment, UniProt Q9UHP3 157-720, looked up)
chain: NPYDRKRQDKAPVGLKNVGNTCWFSAVIQSLFNLLEFRRLVLNYKPPSNAQDLPRNQKEHRNLPFMRELRYLFALLVGTKRKYVDPSRAVEILKDAFKSNDSQQQDVSEFTHKLLDWLEDAFQMKAEEETDEEKPKNPMVELFYGRFLAVGVLEGKKFENTEMFGQYPLQVNGFKDLHECLEAAMIEGEIESLHSENSGKSGQEHWFTELPPVLTFELSRFEFNQALGRPEKIHNKLEFPQVLYLDRYMHRNREITRIKREEIKRLKDYLTVLQQRLERYLSYGSGPKRFPLVDVLQYALEFASSKPVCTSPVDDIDASSPPSGSIPSQTLPSTTEQQGALSSELPSTSPSSVAAISSRSVIHKPFTQSRIPPDLPMHPAPRHITEEELSVLESCLHRWRTEIENDTRDLQESISRIHRTIELMYSDKSMIQVPYRLHAVLVHEGQANAGHYWAYIFDHRESRWMKYNDIAVTKSSWEELVRDSFGGYRNASAYCLMYINDKAQFLIQEEFNKETGQPLVGIETLPPDLRDFVEEDNQRFEKELEEWDAQLAQKALQEKLLASQ
notes: also called USP25 catalytic domain; source: E. coli Rosetta2(DE3)pLacI, purified (HisTrap, 3C protease, Resource Q, size exclusion)
B6: M. musculus USP25 (1-1055) (enzyme, mouse (Mus musculus), UniProt P57080 1-1055, looked up)
chain: MTVEQNVLQQSAAQKHQQTFLNQLREITGINDAQILQQALKDSNGNLELAVAFLTAKNAKTPPQEETGYYQTALPGNDRYISVGSQADANVIDLTGDDKDDLQRAIALSLAESNRAFRETGITDEEQAISRVLEASIAENKACLKRTPIEVWRDSRNPYDRKRQEKAPVGLKNVGNTCWFSAVIQSLFNLLEFRRLVLNYKPPSNAQDLPRNQKEHRNLPFMRELRYLFALLVGTKRKYVDPSRAVEILKDAFKSNDSQQQDVSEFTHKLLDWLEDAFQMKAEEETDEEKPKNPMVELFYGRFLAMGVLEGKKFENTEMFGQYPLQVNGFKDLHECLEAAMIEGEIESLHSDNSGKSGQEHWFTELPPVLTFELSRFEFNQALGRPEKIHNKLEFPQVLYLDRYMHRNREITRIKREEIKRLKDYLTVLQQRLERYLSYGSGPKRFPLVDVLQYALEFASSKPVCTSPVDDIDASSSASGPLPSQSLPSTTEQQGPCASDLPGSSSPASGAALPLRSVIHKPFTQSRIPPDLPMHPAPRHITEEELCVLESCLHRWRTEIENDTRDLQESISRIHRTIELMYSDKSMIQVPYRLHAVLVHEGQANAGHYWAYIFDHRESRWMKYNDIAVTKSSWEELVRDSFGGYRNASAYCLMYIDDKAQFLIQEEFNKETGQALVGMETLPPDLRDFVEEDNQRFEKELEEWDTQLAQRSLQEKLLAAPKLREAEASATTAQAGGADYLEQPSRSDLSKHWKEETLRVIAKASHDLEDKGPETVLQSAIKLEYSRLVKLAQEDTPPETDYRLHHVLVYFIQNQAPKKIIEKTLLEQFGDRNLSFDERCHNIMKVAQAKLEMIKPEEVNLEEYEEWHADYKKFRETTMYLITGLENFQRESYIDSLLFLLCAYQNNKELLSKGPYRGHDGELISHYRRECLLKLNEQAAELFESGEDGDVNNGLIIMNEFIVPFLPLLLVDDMEEKDILAVEDMRNRWCSYLGQEMEANLQEKLTDFLPKLLDCSTEIKGFHEPPKLPSYSAHELCERFARIMLSLSRTPADGR
notes: dimer-tetramer equilibrium; also called full-length mouse USP25; source: E. coli Rosetta2(DE3)pLacI, purified (HisTrap, 3C protease, Resource Q, size exclusion)

What was measured:
[1] = target: the molecule itself; assay: not stated; oligomeric states of purified orthologs and of full-length proteins, Figures S7A, S7B and S3J
[2] = target: the molecule itself; assay: native gel or EMSA; native PAGE of lysates of HEK293 cells transfected with FLAG- or HA-tagged proteins, immunoblotting; recombinant USP25 tetramer and dimer fractions as size standard
[3] = target: T1, ubiquitin-propargylamine, Ub(1-75)-PA (UniProt P0CG48 1-75, C-terminal propargylamine (PA) after residue 75); assay: covalent reaction with the ubiquitin-propargylamine probe; 1.3 eq of His6-3C-Ub(1-75)-PA, 1–4 h at 4°C; complex purified over HisTrap by the probe's tag, 3C protease, gel filtration; conditions: both partners purified
T1 construct: ubiquitin residues 1-75, C-terminus carries propargylamine (reactive probe); reacts covalently with the DUB; the His6-3C tag was on the probe during the reaction and the HisTrap step and was cut off with 3C protease before gel filtration; also called Ub-PA; His6-3C-Ub(1-75)-PA; source: assembled as described previously (Gersch et al., 2017), > 95% purity by intact protein mass spectrometry; not …

[4] = target: the molecule itself; assay: SEC-MALS; 100 μL of 1-2 mg/mL protein on Superdex 200 10/300, 0.5 mL/min, PBS + 2 mM DTT

Row | Binder | stoichiometry N [1] | stoichiometry N [2] | binding result [3] | other results
1 | B1 | 2 |  |  | 
2 | B2 |  | 2 |  | 
3 | B3 | 4 |  | binds | 
4 | B4 |  | 2 |  | 
5 | B5 |  |  | binds | stoichiometry N [4]: 4
6 | B6 | 2 and 4 |  |  | 

Reference: publication PMC6509359 (Molecular Cell, 2019)
